From publication PMC8360603

Molecular target: DDB1/DCAF1 C-terminal domain complex (UniProt Q16531)
Chain of UniProt Q16531 (Q16531 whole entry, chain 1 of 2, the tested form may be a part): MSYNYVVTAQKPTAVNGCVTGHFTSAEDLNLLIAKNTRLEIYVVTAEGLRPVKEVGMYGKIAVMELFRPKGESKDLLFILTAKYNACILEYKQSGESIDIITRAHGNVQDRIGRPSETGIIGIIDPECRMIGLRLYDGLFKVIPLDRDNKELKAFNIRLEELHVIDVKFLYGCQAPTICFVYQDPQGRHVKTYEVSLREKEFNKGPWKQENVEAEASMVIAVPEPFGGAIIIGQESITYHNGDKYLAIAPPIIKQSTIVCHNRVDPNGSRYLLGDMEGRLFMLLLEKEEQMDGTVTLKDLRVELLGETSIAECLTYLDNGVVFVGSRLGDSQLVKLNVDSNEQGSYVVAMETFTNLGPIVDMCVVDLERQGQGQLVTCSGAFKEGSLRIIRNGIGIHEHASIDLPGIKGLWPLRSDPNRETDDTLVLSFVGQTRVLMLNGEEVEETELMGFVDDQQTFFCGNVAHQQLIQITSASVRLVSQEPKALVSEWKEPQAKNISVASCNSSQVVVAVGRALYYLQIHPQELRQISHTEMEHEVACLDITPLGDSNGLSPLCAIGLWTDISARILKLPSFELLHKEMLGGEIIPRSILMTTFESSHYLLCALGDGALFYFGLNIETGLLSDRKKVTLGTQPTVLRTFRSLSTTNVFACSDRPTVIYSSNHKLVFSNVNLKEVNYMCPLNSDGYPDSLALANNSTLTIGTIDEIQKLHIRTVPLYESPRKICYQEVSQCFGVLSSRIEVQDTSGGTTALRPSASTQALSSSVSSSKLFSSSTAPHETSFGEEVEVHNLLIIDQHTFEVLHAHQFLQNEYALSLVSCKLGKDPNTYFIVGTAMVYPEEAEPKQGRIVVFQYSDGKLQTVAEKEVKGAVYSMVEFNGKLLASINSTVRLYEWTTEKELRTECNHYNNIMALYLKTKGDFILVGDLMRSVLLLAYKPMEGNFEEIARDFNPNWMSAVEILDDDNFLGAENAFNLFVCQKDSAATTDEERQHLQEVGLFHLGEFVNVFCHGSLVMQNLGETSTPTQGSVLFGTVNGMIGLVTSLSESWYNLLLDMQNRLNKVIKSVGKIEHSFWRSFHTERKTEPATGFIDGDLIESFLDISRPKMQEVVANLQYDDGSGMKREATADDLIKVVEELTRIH
Chain of UniProt Q16531 (Q9Y4B6 1046-1396, chain 2 of 2, further chain): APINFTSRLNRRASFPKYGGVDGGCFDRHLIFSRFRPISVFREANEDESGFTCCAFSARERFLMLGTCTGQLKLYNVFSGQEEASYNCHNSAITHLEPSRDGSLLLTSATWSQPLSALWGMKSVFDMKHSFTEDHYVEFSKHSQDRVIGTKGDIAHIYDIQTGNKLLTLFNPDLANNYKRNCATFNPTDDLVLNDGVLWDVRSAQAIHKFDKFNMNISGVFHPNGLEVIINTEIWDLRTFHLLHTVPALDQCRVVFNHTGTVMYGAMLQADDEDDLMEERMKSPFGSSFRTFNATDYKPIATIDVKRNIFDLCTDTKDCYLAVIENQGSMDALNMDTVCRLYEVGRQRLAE

Question: How did the in vitro ubiquitylation of T4L-SAMHD1-CtD by CRL4^DCAF1-CtD (UBA1, UBCH5C, ubiquitin, ATP) with HisSUMO-T4L-Vprmus (1-92), 0-15 min, SDS-PAGE; loss of the unmodified band turn out when T4L-SAMHD1-CtD (domain or fragment) was run?
Answer: > 90%
